Experimental data from publication PMC8363014, “OsMADS23 phosphorylated by SAPK9 confers drought and salt tolerance by regulating ABA biosynthesis in rice” (PLoS Genetics, 2021).

Target: T1, His-SAPK9 (rice, UniProt Q75V57 1-361)
T1 construct: SnRK2-type protein kinase SAPK9 from rice; source: E. coli DE3, pET-32a (+), purified
T1 sequence (looked up): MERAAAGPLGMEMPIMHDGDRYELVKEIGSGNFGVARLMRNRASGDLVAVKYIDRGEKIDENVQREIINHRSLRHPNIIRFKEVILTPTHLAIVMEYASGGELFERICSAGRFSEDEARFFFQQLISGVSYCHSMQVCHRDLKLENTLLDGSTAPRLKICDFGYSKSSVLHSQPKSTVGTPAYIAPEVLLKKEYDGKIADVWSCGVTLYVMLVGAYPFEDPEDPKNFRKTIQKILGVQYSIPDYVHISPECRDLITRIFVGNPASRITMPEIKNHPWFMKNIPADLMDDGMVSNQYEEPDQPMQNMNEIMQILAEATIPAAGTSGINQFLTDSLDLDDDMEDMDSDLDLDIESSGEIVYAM
Assay: pull-down; 0.5 mg GST-OsMADS23 or GST on GST Bind Resin, 4°C, 2 h; then 0.5 mg purified His-SAPK9 for 2 h; three washes; western blot with anti-His
Details: both partners purified

binding result: binds
B1: GST-tagged OsMADS23 (natural protein)
chain: not shown
notes: MADS-box transcription factor OsMADS23 from rice; Printed as GST-OsMADS23; also called GST-OsMADS23; source: E. coli BL21 (DE3), pGEX-4T-1, purified
